The source of these data is article PMC11189300 (2024).

The target in assay [1] is Mis12C^M4 (human, UniProt Q9H081 1-205; Q6P1K2 1-205; Q96IY1 1-281; Q9H410 1-356). Nature of the assay: ITC.
For assay [2], the target named is Mis12C^M3 (human, UniProt Q9H081 1-205; Q6P1K2 1-205; Q96IY1 1-281; Q9H410 1-356). Kind of assay: ITC. (In ITC the heat of successive injections is recorded.)
Assay [3] addresses Mis12C^M5 (NSL1 I216A) (human, UniProt Q9H081 1-205; Q6P1K2 1-205; Q96IY1 1-281; Q9H410 1-356, I216A). Kind of assay: ITC.
Assay [4] addresses T1, ZWINT^M2 (human, UniProt O95229 1-277). Kind of assay: BLI; Kd1. (Biolayer interferometry detects binding as a change in optical thickness at a sensor tip.)
Assay [5] has as its target T2, ZWINT^M1 (human, UniProt O95229 1-277). Kind of assay: BLI; Kd1.
Assay [6] deals with T1, ZWINT^M2. Nature of the assay: BLI; Kd2 (second site).
In assay [7] the target is T2, ZWINT^M1. Nature of the assay: BLI; Kd2 (second site).

One may read the Kd as a measure of binding affinity in units of concentration.

Chain of Mis12C^M5 (NSL1 I216A) (Q9H081 whole entry, chain 1 of 4): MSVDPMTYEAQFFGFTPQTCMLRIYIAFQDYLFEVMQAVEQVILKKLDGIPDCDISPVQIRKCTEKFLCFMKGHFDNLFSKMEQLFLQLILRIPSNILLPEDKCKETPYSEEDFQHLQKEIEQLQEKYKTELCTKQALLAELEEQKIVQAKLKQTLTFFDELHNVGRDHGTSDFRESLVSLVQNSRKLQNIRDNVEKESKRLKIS
Chain of Mis12C^M5 (NSL1 I216A) (Q6P1K2 whole entry, chain 2 of 4): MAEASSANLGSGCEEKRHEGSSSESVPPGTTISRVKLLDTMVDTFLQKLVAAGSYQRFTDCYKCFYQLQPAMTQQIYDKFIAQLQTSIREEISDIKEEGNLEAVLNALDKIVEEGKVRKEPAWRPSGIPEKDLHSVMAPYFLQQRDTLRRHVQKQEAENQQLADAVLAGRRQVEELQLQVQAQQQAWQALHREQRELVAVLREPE
Chain of Mis12C^M5 (NSL1 I216A) (Q96IY1 whole entry I216A, chain 3 of 4): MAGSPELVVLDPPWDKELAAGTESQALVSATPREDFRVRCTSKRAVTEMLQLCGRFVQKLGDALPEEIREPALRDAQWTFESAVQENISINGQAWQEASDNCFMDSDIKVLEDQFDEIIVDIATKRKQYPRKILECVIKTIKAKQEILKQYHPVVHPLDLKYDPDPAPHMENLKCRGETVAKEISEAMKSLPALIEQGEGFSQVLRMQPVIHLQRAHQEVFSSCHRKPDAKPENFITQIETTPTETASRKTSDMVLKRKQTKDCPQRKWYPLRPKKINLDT
Chain of Mis12C^M5 (NSL1 I216A) (Q9H410 whole entry, chain 4 of 4): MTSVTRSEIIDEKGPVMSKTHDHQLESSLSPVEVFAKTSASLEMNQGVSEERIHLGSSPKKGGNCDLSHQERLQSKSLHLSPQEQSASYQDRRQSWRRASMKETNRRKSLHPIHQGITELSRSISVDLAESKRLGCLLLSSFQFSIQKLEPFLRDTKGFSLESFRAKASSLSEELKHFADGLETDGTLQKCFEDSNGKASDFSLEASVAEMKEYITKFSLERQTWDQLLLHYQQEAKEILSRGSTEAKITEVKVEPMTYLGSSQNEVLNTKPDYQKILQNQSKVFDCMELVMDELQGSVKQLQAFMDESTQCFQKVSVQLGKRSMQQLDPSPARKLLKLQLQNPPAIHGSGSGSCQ
Chain of Mis12C^M4 (Q9H081 whole entry, chain 1 of 4): as the sequence (Q9H081 whole entry, chain 1 of 4) above
Chain of Mis12C^M4 (Q6P1K2 whole entry, chain 2 of 4): as the sequence (Q6P1K2 whole entry, chain 2 of 4) above
Chain of Mis12C^M4 (Q96IY1 whole entry, chain 3 of 4): as the sequence (Q96IY1 whole entry I216A, chain 3 of 4) above, with A216I counted along it
Chain of Mis12C^M4 (Q9H410 whole entry, chain 4 of 4): as the sequence (Q9H410 whole entry, chain 4 of 4) above
Chain of Mis12C^M3 (Q9H081 whole entry, chain 1 of 4): as the sequence (Q9H081 whole entry, chain 1 of 4) above
Chain of Mis12C^M3 (Q6P1K2 whole entry, chain 2 of 4): as the sequence (Q6P1K2 whole entry, chain 2 of 4) above
Chain of Mis12C^M3 (Q96IY1 whole entry, chain 3 of 4): as the sequence (Q96IY1 whole entry I216A, chain 3 of 4) above, with A216I counted along it
Chain of Mis12C^M3 (Q9H410 whole entry, chain 4 of 4): as the sequence (Q9H410 whole entry, chain 4 of 4) above

B1: full-length SPC24/SPC25 (complex)
chain 1: MAAFRDIEEVSQGLLSLLGANRAEAQQRRLLGRHEQVVERLLETQDGAEKQLREILTMEKEVAQSLLNAKEQVHQGGVELQQLEAGLQEAGEEDTRLKASLLQLTRELEELKEIEADLERQEKEVDEDTTVTIPSAVYVAQLYHQVSKIEWDYECEPGMVKGIHHGPSVAQPIHLDSTQLSRKFISDYLWSLVDTEW
chain 2: MVEDELALFDKSINEFWNKFKSTDTSCQMAGLRDTYKDSIKAFAEKLSVKLKEEERMVEMFLEYQNQISRQNKLIQEKKDNLLKLIAEVKGKKQELEVLTANIQDLKEEYSRKKETISTANKANAERLKRLQKSADLYKDRLGLEIRKIYGEKLQFIFTNIDPKNPESPFMFSLHLNEARDYEVSDSAPHLEGLAEFQENVRKTNNFSAFLANVRKAFTATVYN
B1: the Kd in assay [1] came out at 451 nM; in assay [2] it was 1170 nM; in assay [3] it was 774 nM.

B2: KNL1 (construct of the BLI titrations with ZWINT) (domain or fragment)
chain: GKLVQSAQNEREKLQIKIDEMDKILKKIDNCLTEMETETKNLEDEEKNNPVEEWDSEMRAAEKELEQLKTEEEELQRNLLELEVQKEQTLAQIDFMQKQRNRTEELLDQLSLSEWDVVEWSDDQAVFTFVYDTIQLTITFEESVVGFPFLDKRYRKIVDVNFQSLLDEDQAPPSSLLVHKLIFQYVEEKESWKKTCTTQHQLPKMLEEFSLVVHHCRLLGEEIEYLKRWGPNYNLMNIDINNNELRLLFSSSAAFAKFEITLFLSAYYPSVPLPSTIQNHVGNTSQDDIATILSKVPLENNYLKNVVKQIYQDLFQDCHFYH
As for B2, the Kd in assay [4] was found to be 1170 nM; in assay [5], 235 nM; in assay [6], 250 nM; in assay [7], 25.1 nM.
